The chains are these.
B2: bacteriophage lambda gpE major capsid protein (natural protein, UniProt P03713 1-341, looked up)
chain: MSMYTTAQLLAANEQKFKFDPLFLRLFFRESYPFTTEKVYLSQIPGLVNMALYVSPIVSGEVIRSRGGSTSEFTPGYVKPKHEVNPQMTLRRLPDEDPQNLADPAYRRRRIIMQNMRDEELAIAQVEEMQAVSAVLKGKYTMTGEAFDPVEVDMGRSEENNITQSGGTEWSKRDKSTYDPTDDIEAYALNASGVVNIIVFDPKGWALFRSFKAVKEKLDTRRGSNSELETAVKDLGKAVSYKGMYGDVAIVVYSGQYVENGVKKNFLPDNTMVLGNTQARGLRTYGCIQDADAQREGINASARYPKNWVTTGDPAREFTMIQSAPLMLLADPDEFVSVQLA

Data set [1] has as its target bacteriophage lambda gpNu3 scaffolding protein (bacteriophage lambda) (UniProt P03711). Kind of data set: AUC.
Data set [2] addresses B2. Kind of data set: SEC. In general terms: In gel filtration, larger molecules generally elute earlier.
The data set “SEC” concerns the molecule itself. Kind of data set: SEC.

This note sets out measurements from PMC3247018 (Journal of molecular biology, 2011).

Usually stoichiometry N stands for the number of molecules, sites or subunits per partner or assembly.

Take “bacteriophage lambda gpNu3 scaffolding protein (from UniProt P03711-2 1-131) (natural protein)”: the stoichiometry N in data set [1] is 2.

B1: bacteriophage lambda gpNu3 scaffolding protein (natural protein, UniProt P03711-2 1-131, looked up)
chain: MTKETQSTTVSATASQADVTDVVPATEGENASAAQPDVNAQITAAVAAENSRIMGILNCEEAHGREEQARVLAETPGMTVKTARRILAAAPQSAQARSDTALDRLMQGAPAPLAAGNPASDAVNDLLNTPV
As for B1, the binding result in data set [2] is “binds”.

In the case of B2, the binding result in “SEC” was “binds”.
